T1: recombinant human IL-31 (as used in the NHK STAT3 phosphorylation assay of Example 5) (human, UniProt Q6EBC2 24-164, limits assumed)
T1 sequence: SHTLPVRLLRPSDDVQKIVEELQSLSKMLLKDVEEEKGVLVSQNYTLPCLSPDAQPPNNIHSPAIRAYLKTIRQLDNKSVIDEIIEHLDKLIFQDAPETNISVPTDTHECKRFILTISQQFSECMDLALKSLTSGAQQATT

T2: recombinant human IL-31 (hIL-31, BHK produced, A1277F, zcytor17lig CEE) (human, UniProt Q6EBC2 24-164)
T2 construct: also called recombinant hIL-31
T2 sequence: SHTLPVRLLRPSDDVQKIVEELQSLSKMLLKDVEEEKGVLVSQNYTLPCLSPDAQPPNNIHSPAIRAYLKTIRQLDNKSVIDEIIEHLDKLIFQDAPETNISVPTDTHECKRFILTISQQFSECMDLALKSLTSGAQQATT


Legend:
[1] = target: recombinant human IL-31 (C108S), produced in E. coli by ZymoGenetics, MW 18 kDa (human), Q6EBC2; test: cell-based or functional assay
[2] = target: T1, recombinant human IL-31 (as used in the …); test: cell-based or functional assay
[3] = target: T2, recombinant human IL-31 (hIL-31, BHK …); test: SPR (Biacore), mAb amine-coupled to CM5 chip, hIL-31 injected
Procedure: (§1) The purified monoclonal antibodies were immobilized in individual flow cells on a CM5 type sensor chip. Immobilizations were performed using a standard amine coupling procedure, aiming for an immobilization level of 500 Resonance Units (RU). The antibodies were diluted to 1-5 ug/ml in 10 mM NaAc pH 4.5.
(§2) HPS-EP pH 7.4 (10 mM HEPES, 150 mM NaCl, 3 mM EDTA and 0.005% Polysorbat P20) was used as running buffer, and diluents for the recombinant hIL-31 (hIL-31, BHK produced, A1277F, zcytor17lig CEE). The hIL-31 was tested in a 3-fold dilution series from 333.3 nM to 1.4 nM. Association (injection) was 4 min., followed by a 20 min. dissociation (wash) period. Flow rate was 50 ul/min. Experiments were performed at 25OC. Regeneration of the surface was accomplished by injection of 30 sec. pulse of 10 mM Glycin-HCl pH 1.8 or 1M formic acid, at a 30 ul/min flow rate. Detection in all flow cells simultaneously. Flow cell #1 contained no immobilized antibody, and was used for subtraction of background and bulk.
(§3) The kinetic parameters were calculated by global fitting of the data using a 1:1 langmuir binding model. Data was inspected for mass-transport limitations prior to calculation of the kinetic parameters. In some experiments the Rmax was fitted locally, and the RI constant at 0.

[4] = target: T2, recombinant human IL-31 (hIL-31, BHK …); test: SPR (Biacore), against parent 292.12.3.1
Procedure: as §1, §2, §3

Row | Binder | Average Fold loss in potency relative to 292.12.3.1, BAF-3(hIL-31R) proliferation assay [1] | Average Potency (IC50), inhibition of hIL-31-induced proliferation of BAF-3(hIL-31R) cells [1] | IC50, IL-31-induced STAT3 phosphorylation in NHK, Exp 4 [2] | IC50, IL-31-induced STAT3 phosphorylation in NHK, Exp 10 [2] | Kd [3] | koff [3] | kon [3] | Relative potency loss (KD) [4] | IC50, IL-31-induced STAT3 phosphorylation in NHK, Exp 8 [2] | IC50, IL-31-induced STAT3 phosphorylation in NHK, Exp 9 [2] | Relative potency loss (kd) [4] | IC50, IL-31-induced STAT3 phosphorylation in NHK, Exp 6 [2] | IC50, IL-31-induced STAT3 phosphorylation in NHK, Exp 7 [2]
1 | humanized 292.12.3.1 construct clone 8 (12VH5-gly + fback) (antibody, human IgG4, V domains shown, also called 08) VH: EVQLVQSGAEVKKPGESLKISCKASGYTLTRYWMQWVRQMPGKGLEWMGAIYPGDGDTRYSPSFQGQVTLTADKSISTAYLQWSSLKASDTAMYYCAFPDGYYAAPYGMDYWGQGTTVTVSS VL: DIQMTQSPSSLSASVGDRVTITCRASGNIHNYLAWYQQKPGKVPKLLIYNAKTLADGVPSRFSGSRSETQYSLTISSLQPEDVATYYCQHFWSTPWTFGQGTKVEIKR | 2.5 fold | 4.1 nM | 6.74 nM | 3.44 nM | 1.9 nM | 5.4e-05 s⁻¹ | 28000 M⁻¹ s⁻¹ |  |  |  |  |  | 
2 | humanized 292.12.3.1 construct clone 26 (12VH1-gly + HC(fback) + LC(F71Y)) (antibody, human IgG4, V domains shown) VH: QVQLVQSGAEVKKPGASVKVSCKASGYTLTRYWMQWVRQAPGQGLEWMGAIYPGDGDTRYSQKFQGRVTLTADKSISTAYMELSSLRSEDTAVYYCAFPDGYYAAPYGMDYWGQGTLVTVSS VL: DIQMTQSPSSLSASVGDRVTITCRASGNIHNYLAWYQQKPGKVPKLLIYNAKTLADGVPSRFSGSGSGTDYTLTISSLQPEDVATYYCQHFWSTPWTFGQGTKVEIKR | 5.8 fold | 9.3 nM |  |  | 0.68 nM | 7e-05 s⁻¹ | 100000 M⁻¹ s⁻¹ | ~0.4 x to parent | 7.84 nM | 6.93 nM |  |  | 
3 | humanized 292.12.3.1 construct clone 24 (12VH5-gly + HC(fback) + LC(G66R, G68E, F71Y)) (antibody, human IgG4, V domains shown) VH: EVQLVQSGAEVKKPGESLKISCKASGYTLTRYWMQWVRQMPGKGLEWMGAIYPGDGDTRYSPSFQGQVTLTADKSISTAYLQWSSLKASDTAMYYCAFPDGYYAAPYGMDYWGQGTTVTVSS VL: DIQMTQSPSSLSASVGDRVTITCRASGNIHNYLAWYQQKPGKVPKLLIYNAKTLADGVPSRFSGSRSETDYTLTISSLQPEDVATYYCQHFWSTPWTFGQGTKVEIKR | 4 fold | 6 nM |  |  |  |  |  |  |  |  |  |  | 
4 | humanized 292.12.3.1 construct clone 13 (12VH1-gly + HC(F29L, M69L, R71A, T73K, V78A) + LC(fback)) (antibody, human IgG4, V domains shown) VH: QVQLVQSGAEVKKPGASVKVSCKASGYTLTRYWMQWVRQAPGQGLEWMGAIYPGDGDTRYSQKFQGRVTLTADKSISTAYMELSSLRSEDTAVYYCARPDGYYAAPYGMDYWGQGTLVTVSS VL: DIQMTQSPSSLSASVGDRVTITCRASGNIHNYLAWYQQKPGKVPKLLIYNAKTLADGVPSRFSGSRSETQYSLTISSLQPEDVATYYCQHFWSTPWTFGQGTKVEIKR | 99.1 fold | 109 nM |  |  | 24 nM | 0.003 s⁻¹ | 120000 M⁻¹ s⁻¹ | ~10 x to parent |  |  | ~50 x to parent | 46.5 nM | 211 nM
5 | humanized 292.12.3.1 construct clone 14 (12VH1-gly + HC(M69L, R71A, T73K, V78A, R94F) + LC(fback)) (antibody, human IgG4, V domains shown) VH: QVQLVQSGAEVKKPGASVKVSCKASGYTFTRYWMQWVRQAPGQGLEWMGAIYPGDGDTRYSQKFQGRVTLTADKSISTAYMELSSLRSEDTAVYYCAFPDGYYAAPYGMDYWGQGTLVTVSS VL: DIQMTQSPSSLSASVGDRVTITCRASGNIHNYLAWYQQKPGKVPKLLIYNAKTLADGVPSRFSGSRSETQYSLTISSLQPEDVATYYCQHFWSTPWTFGQGTKVEIKR |  |  |  |  | 12.5 nM | 0.00073 s⁻¹ | 59000 M⁻¹ s⁻¹ | ~5.5 x to parent |  |  | ~12 x to parent | 71.9 nM | 242 nM
6 | humanized 292.12.3.1 construct clone 10 (12VH1-gly + LC(fback)) (antibody, human IgG4, V domains shown) VH: QVQLVQSGAEVKKPGASVKVSCKASGYTFTRYWMQWVRQAPGQGLEWMGAIYPGDGDTRYSQKFQGRVTMTRDTSISTVYMELSSLRSEDTAVYYCARPDGYYAAPYGMDYWGQGTLVTVSS VL: DIQMTQSPSSLSASVGDRVTITCRASGNIHNYLAWYQQKPGKVPKLLIYNAKTLADGVPSRFSGSRSETQYSLTISSLQPEDVATYYCQHFWSTPWTFGQGTKVEIKR |  |  |  |  | 186 nM | 0.015 s⁻¹ | 88000 M⁻¹ s⁻¹ | ~85 x to parent |  |  | ~245 x to parent | 68.8 nM | 224 nM
7 | humanized 292.12.3.1 construct clone 9 (12VH1-gly + HC(fback)) (antibody, human IgG4, V domains shown, also called 09) VH: QVQLVQSGAEVKKPGASVKVSCKASGYTLTRYWMQWVRQAPGQGLEWMGAIYPGDGDTRYSQKFQGRVTLTADKSISTAYMELSSLRSEDTAVYYCAFPDGYYAAPYGMDYWGQGTLVTVSS VL: DIQMTQSPSSLSASVGDRVTITCRASGNIHNYLAWYQQKPGKVPKLLIYNAKTLADGVPSRFSGSGSGTDFTLTISSLQPEDVATYYCQHFWSTPWTFGQGTKVEIKR | 15.1 fold | 28.5 nM |  |  | 2.1 nM | 9e-05 s⁻¹ | 43000 M⁻¹ s⁻¹ |  | 6.59 nM | 7.1 nM | ~1.5 x to parent | 3.25 nM | 7.37 nM

Other lines, results leading:

Row | Average Fold loss in potency relative to 292.12.3.1, BAF-3(hIL-31R) proliferation assay [1] | Average Potency (IC50), inhibition of hIL-31-induced proliferation of BAF-3(hIL-31R) cells [1] | IC50, IL-31-induced STAT3 phosphorylation in NHK, Exp 4 [2] | IC50, IL-31-induced STAT3 phosphorylation in NHK, Exp 10 [2] | Kd [3] | koff [3] | kon [3] | Relative potency loss (KD) [4] | IC50, IL-31-induced STAT3 phosphorylation in NHK, Exp 8 [2] | IC50, IL-31-induced STAT3 phosphorylation in NHK, Exp 9 [2] | Relative potency loss (kd) [4] | IC50, IL-31-induced STAT3 phosphorylation in NHK, Exp 6 [2] | IC50, IL-31-induced STAT3 phosphorylation in NHK, Exp 7 [2] | Binder
8 | 13.2 fold | 14 nM |  |  | 1.7 nM | 0.00011 s⁻¹ | 67000 M⁻¹ s⁻¹ |  |  |  | ~2 x to parent |  |  | humanized 292.12.3.1 construct clone 22 (12VH5-gly + HC(fback) + LC(G66R, G68E, D70Q, T72S)) (antibody, human IgG4, V domains shown) VH: EVQLVQSGAEVKKPGESLKISCKASGYTLTRYWMQWVRQMPGKGLEWMGAIYPGDGDTRYSPSFQGQVTLTADKSISTAYLQWSSLKASDTAMYYCAFPDGYYAAPYGMDYWGQGTTVTVSS VL: DIQMTQSPSSLSASVGDRVTITCRASGNIHNYLAWYQQKPGKVPKLLIYNAKTLADGVPSRFSGSRSETQFSLTISSLQPEDVATYYCQHFWSTPWTFGQGTKVEIKR
9 | 7.6 fold | 8.6 nM |  |  | 1.4 nM | 9e-05 s⁻¹ | 65000 M⁻¹ s⁻¹ | ~0.6 x to parent |  |  | ~1.5 x to parent |  |  | humanized 292.12.3.1 construct clone 23 (12VH5-gly + HC(fback) + LC(D70Q, F71Y, T72S)) (antibody, human IgG4, V domains shown) VH: EVQLVQSGAEVKKPGESLKISCKASGYTLTRYWMQWVRQMPGKGLEWMGAIYPGDGDTRYSPSFQGQVTLTADKSISTAYLQWSSLKASDTAMYYCAFPDGYYAAPYGMDYWGQGTTVTVSS VL: DIQMTQSPSSLSASVGDRVTITCRASGNIHNYLAWYQQKPGKVPKLLIYNAKTLADGVPSRFSGSGSGTQYSLTISSLQPEDVATYYCQHFWSTPWTFGQGTKVEIKR
10 | 11.6 fold | 22.8 nM |  |  | 1.46 nM | 7.6e-05 s⁻¹ | 52000 M⁻¹ s⁻¹ |  |  |  |  |  |  | humanized 292.12.3.1 construct clone 11 (12VH5-gly + HC(fback)) (antibody, human IgG4, V domains shown) VH: EVQLVQSGAEVKKPGESLKISCKASGYTLTRYWMQWVRQMPGKGLEWMGAIYPGDGDTRYSPSFQGQVTLTADKSISTAYLQWSSLKASDTAMYYCAFPDGYYAAPYGMDYWGQGTTVTVSS VL: DIQMTQSPSSLSASVGDRVTITCRASGNIHNYLAWYQQKPGKVPKLLIYNAKTLADGVPSRFSGSGSGTDFTLTISSLQPEDVATYYCQHFWSTPWTFGQGTKVEIKR
11 | 3.5 fold | 4.8 nM |  |  | 1.4 nM | 9.7e-05 s⁻¹ | 69000 M⁻¹ s⁻¹ |  |  |  |  |  |  | humanized 292.12.3.1 construct clone 21 (12VH5-gly + HC(G24A, S28T, F29L, R94F) + LC(fback)) (antibody, human IgG4, V domains shown) VH: EVQLVQSGAEVKKPGESLKISCKASGYTLTRYWMQWVRQMPGKGLEWMGAIYPGDGDTRYSPSFQGQVTISADKSISTAYLQWSSLKASDTAMYYCAFPDGYYAAPYGMDYWGQGTTVTVSS VL: DIQMTQSPSSLSASVGDRVTITCRASGNIHNYLAWYQQKPGKVPKLLIYNAKTLADGVPSRFSGSRSETQYSLTISSLQPEDVATYYCQHFWSTPWTFGQGTKVEIKR
12 | 3.3 fold | 4.5 nM | 7.8 nM | 8.82 nM | 1.9 nM | 5.7e-05 s⁻¹ | 33000 M⁻¹ s⁻¹ |  | 5.44 nM | 7.58 nM |  | 3.99 nM | 7.74 nM | humanized 292.12.3.1 construct clone 7 (12VH1-gly + fback) (antibody, human IgG4, V domains shown, also called 07) VH: QVQLVQSGAEVKKPGASVKVSCKASGYTLTRYWMQWVRQAPGQGLEWMGAIYPGDGDTRYSQKFQGRVTLTADKSISTAYMELSSLRSEDTAVYYCAFPDGYYAAPYGMDYWGQGTLVTVSS VL: DIQMTQSPSSLSASVGDRVTITCRASGNIHNYLAWYQQKPGKVPKLLIYNAKTLADGVPSRFSGSRSETQYSLTISSLQPEDVATYYCQHFWSTPWTFGQGTKVEIKR

Reference: patent US20200262913A1 (ZymoGenetics, published 2020)
